Results from patent US20220048967A1 (published 2022).
Changes are numbered by the printed parent chain. Numbered stars: 1 amine (or outer) side, 2 acyl side, 3 side chain; on linkers, the order of the positions; unused ones are H or OH. Square brackets hold non-standard residues; d marks the D form. Side chains are listed from the residue outwards. Ends that are not written are not given here. * marks the point of attachment. C20 diacid = O=C(O)CCCCCCCCCCCCCCCCCCC(=O)*; γGlu = O=C(O)[C@H](CCC(=O)[*:2])N[*:1]; AEEA = NCCOCCOCC(=O)O; Aib = CC(C)(N)C(=O)O

B1: Example 48 (peptide)
peptide: Y[Aib]EGTFTSDYSILLDKIAQ[Aib]AFIEYLIEGGPSSGAPPPK([AEEA-AEEA-γGlu-C20 diacid])-NH2
modifications: N-terminus assumed
SMILES: CC[C@H](C)[C@H](NC(=O)[C@H](CCCCN)NC(=O)[C@H](CC(=O)O)NC(=O)[C@H](CC(C)C)NC(=O)[C@H](CC(C)C)NC(=O)[C@@H](NC(=O)[C@H](CO)NC(=O)[C@H](Cc1ccc(O)cc1)NC(=O)[C@H](CC(=O)O)NC(=O)[C@H](CO)NC(=O)[C@@H](NC(=O)[C@H](Cc1ccccc1)NC(=O)[C@@H](NC(=O)CNC(=O)[C@H](CCC(=O)O)NC(=O)C(C)(C)NC(=O)[C@@H](N)Cc1ccc(O)cc1)[C@@H](C)O)[C@@H](C)O)[C@@H](C)CC)C(=O)N[C@@H](C)C(=O)N[C@@H](CCC(N)=O)C(=O)NC(C)(C)C(=O)N[C@@H](C)C(=O)N[C@@H](Cc1ccccc1)C(=O)N[C@H](C(=O)N[C@@H](CCC(=O)O)C(=O)N[C@@H](Cc1ccc(O)cc1)C(=O)N[C@@H](CC(C)C)C(=O)N[C@H](C(=O)N[C@@H](CCC(=O)O)C(=O)NCC(=O)NCC(=O)N1CCC[C@H]1C(=O)N[C@@H](CO)C(=O)N[C@@H](CO)C(=O)NCC(=O)N[C@@H](C)C(=O)N1CCC[C@H]1C(=O)N1CCC[C@H]1C(=O)N1CCC[C@H]1C(=O)N[C@@H](CCCCNC(=O)COCCOCCNC(=O)COCCOCCNC(=O)CC[C@H](NC(=O)CCCCCCCCCCCCCCCCCCC(=O)O)C(=O)O)C(N)=O)[C@@H](C)CC)[C@@H](C)CC
B2: Example 49 (peptide)
peptide: Y[Aib]EGTFTSDYSILLDKIAQ[Aib]AFIEYLIEGGPSSGAPPPSK([AEEA-AEEA-γGlu-C20 diacid])-NH2
modifications: N-terminus assumed
SMILES: CC[C@H](C)[C@H](NC(=O)[C@H](CCCCN)NC(=O)[C@H](CC(=O)O)NC(=O)[C@H](CC(C)C)NC(=O)[C@H](CC(C)C)NC(=O)[C@@H](NC(=O)[C@H](CO)NC(=O)[C@H](Cc1ccc(O)cc1)NC(=O)[C@H](CC(=O)O)NC(=O)[C@H](CO)NC(=O)[C@@H](NC(=O)[C@H](Cc1ccccc1)NC(=O)[C@@H](NC(=O)CNC(=O)[C@H](CCC(=O)O)NC(=O)C(C)(C)NC(=O)[C@@H](N)Cc1ccc(O)cc1)[C@@H](C)O)[C@@H](C)O)[C@@H](C)CC)C(=O)N[C@@H](C)C(=O)N[C@@H](CCC(N)=O)C(=O)NC(C)(C)C(=O)N[C@@H](C)C(=O)N[C@@H](Cc1ccccc1)C(=O)N[C@H](C(=O)N[C@@H](CCC(=O)O)C(=O)N[C@@H](Cc1ccc(O)cc1)C(=O)N[C@@H](CC(C)C)C(=O)N[C@H](C(=O)N[C@@H](CCC(=O)O)C(=O)NCC(=O)NCC(=O)N1CCC[C@H]1C(=O)N[C@@H](CO)C(=O)N[C@@H](CO)C(=O)NCC(=O)N[C@@H](C)C(=O)N1CCC[C@H]1C(=O)N1CCC[C@H]1C(=O)N1CCC[C@H]1C(=O)N[C@@H](CO)C(=O)N[C@@H](CCCCNC(=O)COCCOCCNC(=O)COCCOCCNC(=O)CC[C@H](NC(=O)CCCCCCCCCCCCCCCCCCC(=O)O)C(=O)O)C(N)=O)[C@@H](C)CC)[C@@H](C)CC
B3: Example 50 (peptide)
peptide: Y[Aib]EGTFTSDYSILLDKK([AEEA-AEEA-γGlu-C20 diacid])AQ[Aib]AFIEYLIEGGPSSG-NH2
modifications: N-terminus assumed
SMILES: CC[C@H](C)[C@H](NC(=O)[C@H](CC(C)C)NC(=O)[C@H](Cc1ccc(O)cc1)NC(=O)[C@H](CCC(=O)O)NC(=O)[C@@H](NC(=O)[C@H](Cc1ccccc1)NC(=O)[C@H](C)NC(=O)C(C)(C)NC(=O)[C@H](CCC(N)=O)NC(=O)[C@H](C)NC(=O)[C@H](CCCCNC(=O)COCCOCCNC(=O)COCCOCCNC(=O)CC[C@H](NC(=O)CCCCCCCCCCCCCCCCCCC(=O)O)C(=O)O)NC(=O)[C@H](CCCCN)NC(=O)[C@H](CC(=O)O)NC(=O)[C@H](CC(C)C)NC(=O)[C@H](CC(C)C)NC(=O)[C@@H](NC(=O)[C@H](CO)NC(=O)[C@H](Cc1ccc(O)cc1)NC(=O)[C@H](CC(=O)O)NC(=O)[C@H](CO)NC(=O)[C@@H](NC(=O)[C@H](Cc1ccccc1)NC(=O)[C@@H](NC(=O)CNC(=O)[C@H](CCC(=O)O)NC(=O)C(C)(C)NC(=O)[C@@H](N)Cc1ccc(O)cc1)[C@@H](C)O)[C@@H](C)O)[C@@H](C)CC)[C@@H](C)CC)C(=O)N[C@@H](CCC(=O)O)C(=O)NCC(=O)NCC(=O)N1CCC[C@H]1C(=O)N[C@@H](CO)C(=O)N[C@@H](CO)C(=O)NCC(N)=O
B4: Example 51 (peptide)
peptide: Y[Aib]EGTFTSDYSILLDKK([AEEA-AEEA-γGlu-C20 diacid])AQ[Aib]AFIEYLIEGG-NH2
modifications: N-terminus assumed
SMILES: CC[C@H](C)[C@H](NC(=O)[C@H](CC(C)C)NC(=O)[C@H](Cc1ccc(O)cc1)NC(=O)[C@H](CCC(=O)O)NC(=O)[C@@H](NC(=O)[C@H](Cc1ccccc1)NC(=O)[C@H](C)NC(=O)C(C)(C)NC(=O)[C@H](CCC(N)=O)NC(=O)[C@H](C)NC(=O)[C@H](CCCCNC(=O)COCCOCCNC(=O)COCCOCCNC(=O)CC[C@H](NC(=O)CCCCCCCCCCCCCCCCCCC(=O)O)C(=O)O)NC(=O)[C@H](CCCCN)NC(=O)[C@H](CC(=O)O)NC(=O)[C@H](CC(C)C)NC(=O)[C@H](CC(C)C)NC(=O)[C@@H](NC(=O)[C@H](CO)NC(=O)[C@H](Cc1ccc(O)cc1)NC(=O)[C@H](CC(=O)O)NC(=O)[C@H](CO)NC(=O)[C@@H](NC(=O)[C@H](Cc1ccccc1)NC(=O)[C@@H](NC(=O)CNC(=O)[C@H](CCC(=O)O)NC(=O)C(C)(C)NC(=O)[C@@H](N)Cc1ccc(O)cc1)[C@@H](C)O)[C@@H](C)O)[C@@H](C)CC)[C@@H](C)CC)C(=O)N[C@@H](CCC(=O)O)C(=O)NCC(=O)NCC(N)=O
B5: Example 57 (peptide)
peptide: YXEGTXTSDYSILLDKKAQXAFIEYLIEGGPSSGAPPPS
modifications: Aib2; αMeF6; K17((2-[2-(2-Amino-ethoxy)-ethoxy]-acetyl)2-(γ-Glu)-CO-(CH2)18-CO2H); Aib20; C-terminal NH2
B6: Example 58 (peptide)
peptide: Y[Aib]EGTFTSDYSSLLDKK([AEEA-AEEA-γGlu-C20 diacid])AQ[Aib]AFIEYLIEGGPSSGAPPPS-NH2
modifications: N-terminus assumed
SMILES: CC[C@H](C)[C@H](NC(=O)[C@H](CC(C)C)NC(=O)[C@H](Cc1ccc(O)cc1)NC(=O)[C@H](CCC(=O)O)NC(=O)[C@@H](NC(=O)[C@H](Cc1ccccc1)NC(=O)[C@H](C)NC(=O)C(C)(C)NC(=O)[C@H](CCC(N)=O)NC(=O)[C@H](C)NC(=O)[C@H](CCCCNC(=O)COCCOCCNC(=O)COCCOCCNC(=O)CC[C@H](NC(=O)CCCCCCCCCCCCCCCCCCC(=O)O)C(=O)O)NC(=O)[C@H](CCCCN)NC(=O)[C@H](CC(=O)O)NC(=O)[C@H](CC(C)C)NC(=O)[C@H](CC(C)C)NC(=O)[C@H](CO)NC(=O)[C@H](CO)NC(=O)[C@H](Cc1ccc(O)cc1)NC(=O)[C@H](CC(=O)O)NC(=O)[C@H](CO)NC(=O)[C@@H](NC(=O)[C@H](Cc1ccccc1)NC(=O)[C@@H](NC(=O)CNC(=O)[C@H](CCC(=O)O)NC(=O)C(C)(C)NC(=O)[C@@H](N)Cc1ccc(O)cc1)[C@@H](C)O)[C@@H](C)O)[C@@H](C)CC)C(=O)N[C@@H](CCC(=O)O)C(=O)NCC(=O)NCC(=O)N1CCC[C@H]1C(=O)N[C@@H](CO)C(=O)N[C@@H](CO)C(=O)NCC(=O)N[C@@H](C)C(=O)N1CCC[C@H]1C(=O)N1CCC[C@H]1C(=O)N1CCC[C@H]1C(=O)N[C@@H](CO)C(N)=O
B7: Example 66 (peptide)
peptide: B5 peptide with X6F, L13X, K16E, I27L
modifications: not fully specified; Aib2; αMeF13 as printed (likely αMeL13); K17((2-[2-(2-Amino-ethoxy)-ethoxy]-acetyl)2-(γ-Glu)-CO-(CH2)18-CO2H); Aib20; C-terminal NH2
B8: Example 67 (peptide)
peptide: B5 peptide with X6F, F22X
modifications: Aib2; K17((2-[2-(2-Amino-ethoxy)-ethoxy]-acetyl)2-(γ-Glu)-CO-(CH2)18-CO2H); Aib20; αMeF22; C-terminal NH2
B9: Example 68 (peptide)
peptide: B5 peptide with X6F, S11X
modifications: Aib2; αMeS11; K17((2-[2-(2-Amino-ethoxy)-ethoxy]-acetyl)2-(γ-Glu)-CO-(CH2)18-CO2H); Aib20; C-terminal NH2
B10: Example 69 (peptide)
peptide: B5 peptide with L13X
modifications: not fully specified; Aib2; αMeF6; αMeF13 as printed (likely αMeL13); K17((2-[2-(2-Amino-ethoxy)-ethoxy]-acetyl)2-(γ-Glu)-CO-(CH2)18-CO2H); Aib20; C-terminal NH2

Target: T1, human GIP receptor (human, UniProt P48546 22-466)
T1 sequence (looked up): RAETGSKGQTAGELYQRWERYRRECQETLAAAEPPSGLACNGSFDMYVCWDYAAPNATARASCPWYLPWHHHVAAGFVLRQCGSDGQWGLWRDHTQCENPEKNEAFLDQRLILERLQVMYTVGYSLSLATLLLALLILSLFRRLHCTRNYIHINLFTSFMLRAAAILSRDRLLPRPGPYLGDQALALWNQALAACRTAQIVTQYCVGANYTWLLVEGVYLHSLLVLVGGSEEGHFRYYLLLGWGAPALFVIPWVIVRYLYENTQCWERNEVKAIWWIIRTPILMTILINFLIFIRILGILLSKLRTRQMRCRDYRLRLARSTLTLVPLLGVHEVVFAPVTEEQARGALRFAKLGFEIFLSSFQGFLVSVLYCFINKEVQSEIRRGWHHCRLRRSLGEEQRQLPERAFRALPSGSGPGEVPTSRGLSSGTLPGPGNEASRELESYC
Test: cell-based or functional assay

Binder	hGIPR cAMP EC50 ratio	hGIPR cAMP Rel EC50
B1	0.863	168 pM
B2	1.69	86.8 pM
B3	1.96	79.4 pM
B4	1.69	96 pM
B5	1.74	84.9 pM
B6	0.522	266 pM
B7	1.89	74.3 pM
B8	1.61	91.3 pM
B9	1.67	88.1 pM
B10	2.73	71.2 pM

Target: human GLP-1 receptor (human, UniProt P43220 24-463)
Test: cell-based or functional assay

Binder	hGLP1R cAMP EC50 ratio	hGLP1R cAMP Rel EC50
B1	0.0966	691 pM
B2	0.112	597 pM
B3	0.675	96.1 pM
B4	0.426	153 pM
B5	0.996	66.8 pM
B6	0.378	180 pM
B7	0.255	285 pM
B8	0.123	447 pM
B9	0.354	153 pM
B10	0.85	84.4 pM
